In publication PMC12694930, “An allantoin-inducible glyoxylate utilization pathway in Pseudomonas aeruginosa” (Microbiology, 2025):

Key:
Gcl [1] = molecular target: T1, Gcl (Pseudomonas aeruginosa, UniProt Q9I3L0); test: GlxR-coupled NADH oxidation with added FAD; yellow protein ([…] nm); assay type: biochemical; details: 100 µM FAD roughly doubled activity; 37 °C
T1 construct: full-length ORF in pET-19m, N-terminal His6 tag cut with TEV protease, expressed in E. coli Rosetta, Ni-NTA
T1 sequence (Q9I3L0 1-591): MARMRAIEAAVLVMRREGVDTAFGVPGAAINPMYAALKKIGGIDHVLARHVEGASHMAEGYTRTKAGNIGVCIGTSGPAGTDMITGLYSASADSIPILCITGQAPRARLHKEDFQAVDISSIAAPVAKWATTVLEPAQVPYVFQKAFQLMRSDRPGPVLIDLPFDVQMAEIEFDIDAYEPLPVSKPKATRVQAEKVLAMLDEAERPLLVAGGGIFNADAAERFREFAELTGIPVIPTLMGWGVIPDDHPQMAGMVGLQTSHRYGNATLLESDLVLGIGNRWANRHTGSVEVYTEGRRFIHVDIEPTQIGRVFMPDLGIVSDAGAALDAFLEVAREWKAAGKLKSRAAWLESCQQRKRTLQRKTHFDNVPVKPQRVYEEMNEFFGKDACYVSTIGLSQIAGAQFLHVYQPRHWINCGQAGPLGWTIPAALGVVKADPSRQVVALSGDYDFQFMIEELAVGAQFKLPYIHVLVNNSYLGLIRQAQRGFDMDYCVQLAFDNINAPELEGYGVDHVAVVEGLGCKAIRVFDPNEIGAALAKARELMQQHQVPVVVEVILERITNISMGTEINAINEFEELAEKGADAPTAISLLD

Gcl [2] = molecular target: T1, Gcl; test: 1H-NMR, decrease of hydrated glyoxylate peak; assay type: biochemical; details: 50 mM sodium phosphate in D2O, 1 mM MgCl2, pD 7.0; 37 °C; 22 h; no Hyi
Hyi = molecular target: T2, Hyi (Pseudomonas aeruginosa, UniProt Q9I3L1); test: 1H-NMR, disappearance of hydroxypyruvate peaks; assay type: biochemical; details: 50 mM sodium phosphate in D2O, 1 mM MgCl2, pD 7.0; 37 °C; likely isomerization with H/D exchange, product peak not seen
T2 construct: gene PA1501; full-length ORF in pET-19m, N-terminal His6 tag (cleavage clearly told only for Gcl), expressed in E. coli Rosetta, Ni-NTA; dimer in solution
T2 sequence (Q9I3L1 1-260): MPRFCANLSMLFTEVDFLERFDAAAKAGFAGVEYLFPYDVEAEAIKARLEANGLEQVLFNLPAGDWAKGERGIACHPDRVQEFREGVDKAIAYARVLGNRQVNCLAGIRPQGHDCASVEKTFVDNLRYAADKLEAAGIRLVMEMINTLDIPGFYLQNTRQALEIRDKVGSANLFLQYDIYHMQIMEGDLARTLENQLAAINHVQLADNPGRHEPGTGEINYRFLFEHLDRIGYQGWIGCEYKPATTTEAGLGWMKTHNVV

[3] = molecular target: Hyi (PA1501), putative hydroxypyruvate isomerase from Pseudomonas aeruginosa (P. aeruginosa); test: AUC; analytical ultracentrifugation, sedimentation velocity (AUC-SV), of each purified protein alone
purified protein [4] = substrate: O=CC(O)C(=O)O; test: purified protein; assay type: biochemical, Pseudomonas aeruginosa; details: TSA made in situ by Gcl from 0-10 mM glyoxylate (concentration varied was glyoxylate, so apparent), 0.2 mM NADH, 20 mM MOPS, 37 °C, no Hyi
purified protein [5] = substrate: O=C(O)C(=O)CO; test: purified protein; assay type: biochemical, Pseudomonas aeruginosa; details: 0.2 mM NADH, 20 mM MOPS, pH 7.5, 37 °C, h = 1.6 ± 0.2, some TSA may be present by tautomerization, no Hyi
[6] = molecular target: the molecule itself; test: AUC; analytical ultracentrifugation, sedimentation velocity (AUC-SV), of each purified protein alone

For Cc1cc2nc3c(=O)[nH]c(=O)nc-3n(C[C@H](O)[C@H](O)[C@H](O)COP(=O)(O)OP(=O)(O)OC[C@H]3O[C@@H](n4cnc5c(N)ncnc54)[C@H](O)[C@@H]3O)c2cc1C [flavin adenine dinucleotide], which “GlxR-coupled NADH oxidation with added FAD; yellow protein (445 nm)” value (Gcl [1]) is on record?
Its value is “FAD supplementation roughly doubled the enzyme activity”.

For O=CC(=O)O [glyoxylate], which “1H-NMR, decrease of hydrated glyoxylate peak” value (Gcl [2]) is on record?
Its value is “In the presence of Gcl, this hydrated glyoxylate peak slowly diminished in intensity”.

For O=C(O)C(=O)CO [hydroxypyruvate], which “1H-NMR, disappearance of hydroxypyruvate peaks” value (Hyi) is on record?
The value was “In the presence of Hyi, both hydroxypyruvate peaks had lessened in intensity”.

How did the stoichiometry N [3] turn out when “Hyi (PA1501), putative hydroxypyruvate isomerase from Pseudomonas aeruginosa (enzyme)” was run?
The stoichiometry N was 2.

B1: GlxR (PA1500), tartronate semialdehyde (TSA) reductase from Pseudomonas aeruginosa (enzyme, P. aeruginosa, UniProt Q9I3L2 1-296, looked up)
chain: MAKIGFIGTGIMGKPMAQNLQKAGHSLFLSTHHDAAPADLLEAGAIALANPKEVAQEAEFIIVMVPDTPQVEDVLFRKDGIAEGAGPNKVVIDMSSISPTATKGFAEKIKATGAQYLDAPVSGGEVGAKAATLSIMVGGCPNTFERALPLFQAMGKNITRVGGNGDGQTAKVANQIIVALNIQAVAEALLFAARNGADPAKVREALMGGFASSRILEVHGERMVKGTFDPGFRISLHQKDLNLALAGARELNLNLPNTANAQQVFSTCAAIGGSNWDHSALIKGLEHMANFSIRDE
notes: GlxR, tartronate semialdehyde reductase, ORF PA1500 of P. aeruginosa strain PAO1; the ORF was tagged and over-expressed; The methods state TEV cleavage of the His6 tag 'For Gcl' but then speak of 'each of the over-expressed proteins'; whether the tag of GlxR was removed is not clear; For crystallisation the elution and dialysis buffers differed (PBS based); also called apo-GlxR; GlxRα; source: E. …
What does the source list for B1?
Km (purified protein [4]): 800 µM; kcat (purified protein [4]): 34.7 s⁻¹; K0.5 (purified protein [5]): 16.7 mM; kcat (purified protein [5]): 33.5 s⁻¹; stoichiometry N [6]: 4
